In patent US20100041873A1 (ZymoGenetics, published 2010):
Numbering of substitutions follows the chain as printed. “And” between values parts separate entries of the source, which are not always exact repeats. Equal entries are not always repeated. Blank lines part the entries; values can stand above or below the binder they belong to. No end group written: not given here.

Key:
[1] = target: T1, Hu IL-21 Peptide A1752 (conjugated to ovalbumin) (human, conjugated to ovalbumin); experiment: Western blot
T1 construct: also called peptide #4 C125-S153 conjugated to ovalbumin
T1 sequence (peptide, as listed by the source): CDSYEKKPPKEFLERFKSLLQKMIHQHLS
Protocol: (§1) For Western blots, the non-specific sites on the membranes were blocked with a buffer containing 20 mM Tris, pH 7.4, 0.5 mM EDTA, 0.5% IGEPAL CA-630, 150 mM NaCl, 0.25% gelatin, and 1% casein hydrolysate blocking solution (Western Blocking Reagent, Roche Diagnostics, Inc., Basel Switerzerland) (Blocking Buffer). The membranes were then incubated for 2 hrs at room temperature with purified monoclonal antibody (10 ng/ml or 100 ng/ml) in the Blocking Buffer followed by a 2 hr incubation with peroxidase conjugated donkey anti-human IgG (Jackson Laboratories, Bar Harbor, Me.). The membranes were washed 5 times with the Tris/EDTA/IGEPAL/NaCl/gelatin Blocking buffer which lacked the casein hydrolysate and developed with SUPERSIGNAL™ DuraWest Luminol/Enhancer/Peroxidase Solution (Pierce, Rockford, Ill.) for chemoluminescence detection. The blots were visualized using X-ray film based standard methods.

[2] = target: T2, Hu IL-21 Peptide A1750 (conjugated to ovalbumin) (human, also: chemically conjugated to ovalbumin); experiment: Western blot
T2 construct: also called peptide #2 N54-C71 conjugated to ovalbumin
T2 peptide: NDLVPEFLPAPEDVETNC
Protocol: as §1

[3] = target: T3, Human IL-21 peptide #2 (N54-C71) (human); experiment: direct ELISA
T3 peptide: NDLVPEFLPAPEDVETNC
Protocol: (§2) Wells were blocked with 200 μL/well of Blocking Buffer (PBS-Tween plus 1% w/v bovine serum albumin (BSA)) for 1 hour, after which the plates were washed twice with Wash Buffer. Antibody dilutions were prepared in 5% fetal bovine serum (FBS)/Iscove's Modified Dulbecco's Media (IMDM) medium and adjusted to 1 μg/ml. […] Following 1 hour incubation at ambient temperature, the wells were aspirated and the plates washed twice as described above. Horseradish peroxidase (HRP) labeled Goat anti Mouse IgG, Fc specific or Goat anti Rat IgG, Fc specific, or Goat anti Human IgG, Fc specific (Jackson ImmunoResearch Laboratories, West Grove, Pa.) at a dilution of 1:5000 with 5% FBS/IMDM medium was then added to each well, 100 μL/well, and the plates incubated at ambient temperature for 1 hour. After removal of unbound HRP conjugated antibody, the plates were washed five times, 100 μL /well of tetra methyl benzidine (TMB) (BioFX Laboratories, Owings Mills, Md.) added to each well and the plates incubated for 3 minutes at ambient temperature. Color development was stopped by the addition of 100 μL /well of 450 nm TMB Stop Reagent (BioFX Laboratories, Owings Mills, Md.) and the absorbance values of the wells read on a Molecular Devices Spectra MAX 340 instrument at 450 nm.

[4] = target: T4, Human IL-21 peptide #1 (pyr30-K50) (human, N-terminal pyroGlu); experiment: direct ELISA
T4 construct: coated on ELISA plates; also called Peptide 1 N-Term
T4 peptide: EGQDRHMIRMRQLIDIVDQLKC
Protocol: as §2

[5] = target: T5, Recombinant human IL-21 (human, UniProt Q9HBE4 30-162); experiment: cell-based or functional assay
T5 sequence (Q9HBE4 30-162 limits assumed): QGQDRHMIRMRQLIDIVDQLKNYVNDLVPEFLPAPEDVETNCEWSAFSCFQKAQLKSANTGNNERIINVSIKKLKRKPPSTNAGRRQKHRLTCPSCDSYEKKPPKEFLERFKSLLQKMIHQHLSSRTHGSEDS

[6] = target: Recombinant cynomolgus IL-21 (cynomolgus monkey, UniProt Q9HBE4 30-162 (human entry), limits assumed); experiment: cell-based or functional assay
Chain of Recombinant cynomolgus IL-21 (Q9HBE4 other isoform, or with tags, fused parts or gaps limits assumed): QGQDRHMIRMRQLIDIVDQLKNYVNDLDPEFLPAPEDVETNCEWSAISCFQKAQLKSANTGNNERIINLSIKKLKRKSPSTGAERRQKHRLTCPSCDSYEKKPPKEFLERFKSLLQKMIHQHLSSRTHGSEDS

[7] = target: Recombinant murine IL-21 (mouse, UniProt Q9ES17 18-146); experiment: cell-based or functional assay
[8] = target: Recombinant rat IL-21 (rat, UniProt A3QPB9 18-146, limits assumed); experiment: cell-based or functional assay
Chain of Recombinant rat IL-21 (A3QPB9 18-146 limits assumed): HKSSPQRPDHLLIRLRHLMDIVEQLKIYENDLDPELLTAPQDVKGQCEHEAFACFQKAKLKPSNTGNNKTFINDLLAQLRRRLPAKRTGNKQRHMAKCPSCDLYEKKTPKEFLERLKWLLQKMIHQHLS

[9] = target: T5, Recombinant human IL-21; experiment: cell-based or functional assay; remark: listed apart in the source
[10] = target: T5, Recombinant human IL-21; experiment: cell-based or functional assay; remark: listed apart in the source
[11] = target: T5, Recombinant human IL-21; experiment: cell-based or functional assay; remark: listed apart in the source

- binding result [1]: no binding (tested: 10 or 100 ng/ml mAb)
- binding result [2]: no binding (tested: 10 or 100 ng/ml mAb)
- binding result [3]: no binding (tested: 1 ug/ml mAb)
- binding result [4]: no binding (tested: 1 ug/ml mAb)
- % IgD-low, CD138+ Plasma Cells, antagonist:ligand 0.16:1 [5]: 42.8%
- % IgD-low, CD138+ Plasma Cells, antagonist:ligand 0.6:1 [5]: 34.1%
- % IgD-low, CD138+ Plasma Cells, antagonist:ligand 2.5:1 [5]: 15.5%
- % IgD-low, CD138+ Plasma Cells, antagonist:ligand 10:1 [5]: 13.7%
B1: Human anti-human IL-21 monoclonal antibody 362.78.1.44 (antibody, V domains shown)
VH: QVQLVESGGGVVQPGRSLRLSCAASGFTFSSYGMHWVRQAPGKGLEWVAFIWYDGSDKYYADSVKGRFTISRDNSKNTLYLQMNSLRAEDTAVYYCARDGDSSDWYGDYYFGMDVWGQGTTVTVSS
VL: not shown
notes: Hybridoma antibody, ATCC PTA-8790; also called clone 78

- binding result [2]: no binding (tested: 10 or 100 ng/ml mAb)
- binding result [3]: no binding (tested: 1 ug/ml mAb)
- binding result [4]: no binding (tested: 1 ug/ml mAb)
B2: Human anti-human IL-21 monoclonal antibody 362.597.3 (antibody, V domains shown)
VH: B1 VH with S31T
VL: not shown
notes: Hybridoma antibody, ATCC PTA-8786; isotype printed as IgG; also called 362.597.3.15

- % IgD-low, CD138+ Plasma Cells, antagonist:ligand 0.16:1 [5]: 66.7%
- % IgD-low, CD138+ Plasma Cells, antagonist:ligand 0.6:1 [5]: 54.2%
- % IgD-low, CD138+ Plasma Cells, antagonist:ligand 2.5:1 [5]: 41.7%
- % IgD-low, CD138+ Plasma Cells, antagonist:ligand 10:1 [5]: 23.4%
- Cyno IL-21 IC50 ([cIL-21] = 100 pM), STAT-Luciferase assay [6]: 20 ng/mL and 385 pM
- Murine IL-21 IC50 ([mIL-21] = 6.41 nM), STAT-Luciferase assay [7]: 426 ng/mL and 8.06 nM
- Rat IL-21 IC50 ([rIL-21] = 1.08 nM), STAT-Luciferase assay [8]: 708 ng/mL and 13.4 nM
- IC50 (pM), 24 hr STAT-Luciferase assay, Expt #2 [9]: 1830 pM
- IC50 (pM), STAT3-phosphorylation assay, Expt #1 [10]: 25 pM
- IC50 (pM), STAT3-phosphorylation assay, Expt #2 [10]: 102 pM
- IC50 (pM), STAT3-phosphorylation assay, Expt #3 (96 pM IL-21) [10]: 140 pM
- IC50 (nM), B cell proliferation assay (anti-CD40 + 3.21 nM IL-21) [11]: 3.5 nM
B3: Heterodimeric IL-21 soluble receptor (IL-21R/γc-Fc) (Fc fusion, not shown: a dimerising Fc or GST)
chain 1: not shown
chain 2: LNTTILTPNGNEDTTADFFLTTMPTDSLSVSTLPLPEVQCFVFNVEYMNCTWNSSSEPQPTNLTLHYWYKNSDNDKVQKCSHYLFSEEITSGCQLQKKEIHLYQTFVVQLQDPREPRRQATQMLKLQNLVIPWAPENLTLHKLSESQLELNWNNRFLNHCLEHLVQYRTDWDHSWTEQSVDYRHKFSLPSVDGQKRYTFRVRSRFNPLCGSAQHWSEWSHPIHWGSNTSKENPFLFALEA
